Measurements as given in patent US20080312152A1, “Glycosylated Probnp” (priority 2005, published 2008).
“Also recorded” adds a separate entry of the source.

How the values were obtained:
[1] = BNP as active hormone; cited from earlier work
GC-A receptor [2] = molecular target: T1, GC-A receptor (Homo sapiens, UniProt P16066); assay: Competitive binding to GC-A receptor (FIG. 7); conditions: glycosylated recombinant human proBNP vs hBNP
T1 sequence (P16066 33-1061): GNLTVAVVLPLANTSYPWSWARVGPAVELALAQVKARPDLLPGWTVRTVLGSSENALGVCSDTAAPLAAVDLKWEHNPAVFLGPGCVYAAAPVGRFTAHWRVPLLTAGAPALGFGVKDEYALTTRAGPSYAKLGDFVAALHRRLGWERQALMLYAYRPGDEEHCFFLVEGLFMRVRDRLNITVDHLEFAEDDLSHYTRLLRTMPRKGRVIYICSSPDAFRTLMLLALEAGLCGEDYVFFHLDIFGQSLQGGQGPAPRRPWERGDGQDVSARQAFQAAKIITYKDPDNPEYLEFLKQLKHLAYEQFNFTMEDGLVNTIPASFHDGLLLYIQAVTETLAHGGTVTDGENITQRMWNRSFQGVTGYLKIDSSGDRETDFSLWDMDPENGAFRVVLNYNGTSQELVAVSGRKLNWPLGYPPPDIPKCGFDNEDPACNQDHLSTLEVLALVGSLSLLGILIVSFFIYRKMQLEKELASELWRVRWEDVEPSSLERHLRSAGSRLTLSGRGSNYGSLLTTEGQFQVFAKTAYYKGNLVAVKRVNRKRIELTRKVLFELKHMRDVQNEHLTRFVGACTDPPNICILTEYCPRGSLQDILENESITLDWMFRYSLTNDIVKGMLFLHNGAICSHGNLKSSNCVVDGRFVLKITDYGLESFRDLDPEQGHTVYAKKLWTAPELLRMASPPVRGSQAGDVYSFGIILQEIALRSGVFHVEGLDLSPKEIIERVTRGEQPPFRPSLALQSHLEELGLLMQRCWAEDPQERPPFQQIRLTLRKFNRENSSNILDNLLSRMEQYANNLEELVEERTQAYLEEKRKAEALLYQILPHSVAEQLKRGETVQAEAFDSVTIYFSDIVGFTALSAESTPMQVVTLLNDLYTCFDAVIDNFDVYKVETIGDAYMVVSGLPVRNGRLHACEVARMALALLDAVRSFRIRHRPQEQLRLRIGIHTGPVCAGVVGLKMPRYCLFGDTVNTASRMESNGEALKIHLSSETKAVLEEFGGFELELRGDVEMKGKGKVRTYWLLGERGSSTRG
Description: FIG. 7 is a graph showing competitive binding of glycosylated recombinant human proBNP to GC-A receptor relative to hBNP.

GC-A receptor [3] = molecular target: T1, GC-A receptor; assay: Cyclic GMP release from cells expressing the human GC-A receptor; assay type: cell-based; conditions: vs hBNP
Method: Pursuant to the present invention, the effects of hBNP, unglycosylated proBNP, and O-link glycosylated proBNP on cyclic GMP release from cells expressing the human GC-A receptor were determined.

NPR-A receptor = molecular target: T2, NPR-A receptor (Homo sapiens, UniProt P16066); assay: NPR-A activation in human aorta endothelial cells (FIG. 8); assay type: cell-based
T2 construct: endogenous in cells; host or cells: human aorta endothelial cells
T2 sequence (P16066 33-1061): T1 sequence (P16066 33-1061)
Description: The graph provides a direct activity comparison of hBNP relative to proBNP.
With respect to proBNP and BNP, total “Natriuretic Activity” in a blood sample is defined by the cumulative activity of proBNP and hBNP. When measuring against this receptor however it should be appreciated that the activity of other relevant natriuretic peptides, such as ANP and proANP can and should also be taken into consideration.

cGMP = cGMP levels in plasma and urine after i.v. bolus in cynomolgus monkeys; assay type: in vivo, cynomolgus monkey
Description: Six adult male cynomolgus monkeys (5-6 kg) from the same colony were randomly selected for this study. In the morning of the experiment day, each monkey was quickly anesthetized by inhalation of 5% isoflurance/95% oxygen. Once the animal was unconscious, the isoflurance was reduced to 1.5% and a sterile catheter was inserted into the urinary bladder. Another catheter was connected to a cephalic vein in the right or left arm of the monkey for compound delivery. The anesthesia was discontinued. The conscious monkey was seated in a restraining chair and allowed to stabilize for 1 hour. The conscious monkey received two bolus doses (1 nmol/kg and 3 nmol/kg) of each human BNP analog in 1 ml of saline via cephalic vein injection followed by a flush with 3 ml of saline. One hour of washing-out period was required between the two administrations. Two ml of blood were drawn into a EDTA tube containing 150 kallikrein-inactivating units aprotonin via a cephalic vein in the another arm of the monkey at the following 8 time points: baseline (within 2 min prior to dosing), 2, 5, 10, 15, 30, 60 and 120 min. The collected samples were kept on ice prior to centrifugation at 4° C. The plasma from each time point was aliquoted to 4 Eppendorff tubes with approximately […]. For urine collection, the bladder was emptied and flushed with 5 ml of sterile water. […]

[4] = Pharmacokinetics after i.v. bolus in cynomolgus monkeys (FIGS. 9, 10); assay type: in vivo, cynomolgus monkey; conditions: for circulating (plasma) half-life compared to hBNP: i.v., male Cyno monkeys
Description: Six adult male cynomolgus monkeys (5-6 kg) from the same colony were randomly selected for this study. In the morning of the experiment day, each monkey was quickly anesthetized by inhalation of 5% isoflurance/95% oxygen. Once the animal was unconscious, the isoflurance was reduced to 1.5% and a sterile catheter was inserted into the urinary bladder. Another catheter was connected to a cephalic vein in the right or left arm of the monkey for compound delivery. The anesthesia was discontinued. The conscious monkey was seated in a restraining chair and allowed to stabilize for 1 hour. The conscious monkey received two bolus doses (1 nmol/kg and 3 nmol/kg) of each human BNP analog in 1 ml of saline via cephalic vein injection followed by a flush with 3 ml of saline. One hour of washing-out period was required between the two administrations. Two ml of blood were drawn into a EDTA tube containing 150 kallikrein-inactivating units aprotonin via a cephalic vein in the another arm of the monkey at the following 8 time points: baseline (within 2 min prior to dosing), 2, 5, 10, 15, 30, 60 and 120 min. The collected samples were kept on ice prior to centrifugation at 4° C. The plasma from each time point was aliquoted to 4 Eppendorff tubes with approximately […]. For urine collection, the bladder was emptied and flushed with 5 ml of sterile water. The urine was collected to a 15 ml regular polypropylene tube in every 20 min at the following time points: −60, −40, −20, 0, 20, 40, 60, 80, 100 and 120 min. Weighing of tube was required before and after collection. The urine sample from each time point was aliquoted to 4 Eppendorf tubes with […]. All plasma and urine samples were kept at −80° C. and delivered on dry ice. Material supply: […] of hBNP were required for 8 cynos with the body weight of 6 kg at the doses of 1 nmol/kg and 3 nmol/kg, respectively. The material for each dose was weighed to a 15 ml sterile tube and dissolved in 8 ml of sterile saline prior to injection. Approximately 1 ml of the material at each dose was injected to each animal. The injection volume (ml) of the material to each animal was equal to animal body weight (kg) divided by six.

Question: For CC[C@H](C)[C@@H]1NC(=O)[C@H](CCCNC(=N)N)NC(=O)[C@H](CC(=O)O)NC(=O)[C@H](CCSC)NC(=O)[C@H](CCCCN)NC(=O)[C@H](CCCNC(=N)N)NC(=O)CNC(=O)[C@H](Cc2ccccc2)NC(=O)[C@@H](NC(=O)CNC(=O)[C@H](CO)NC(=O)CNC(=O)[C@H](CCC(N)=O)NC(=O)[C@@H](NC(=O)[C@H](CCSC)NC(=O)[C@H](CCCCN)NC(=O)[C@@H]2CCCN2C(=O)[C@@H](N)CO)C(C)C)CSSC[C@@H](C(=O)N[C@@H](CCCCN)C(=O)N[C@H](C(=O)N[C@@H](CC(C)C)C(=O)N[C@@H](CCCN=C(N)N)C(=O)N[C@@H](CCCN=C(N)N)C(=O)N[C@@H](Cc2cnc[nH]2)C(=O)O)C(C)C)NC(=O)CNC(=O)[C@H](CC(C)C)NC(=O)CNC(=O)[C@H](CO)NC(=O)[C@H](CO)NC(=O)[C@H](CO)NC(=O)[C@H](CO)NC1=O [hBNP], which half-life [1] is on record?
Answer: Its half-life is “approximately 20 minutes”.

Question: Which “competitive binding to GC-A receptor relative to hBNP” value (GC-A receptor [2]) does the source give for “proBNP: 108 amino acid human BNP precursor protein, O-link glycosylated, recombinantly expressed in CHO cells” here?
Answer: Its value is “less active”.

Question: What about the “inducing cellular cyclic GMP release (receptor activation)” value (GC-A receptor [3]) of the same compound?
Answer: Its value is “equivalent to hBNP”.

Question: What about the “potency in cyclic GMP release assay” value (GC-A receptor [3]) of the same compound?
Answer: The value was “less potent than hBNP”.

Question: What about the “activity against the NPR-A receptor” value (NPR-A receptor) of the same compound?
Answer: The value was “exhibit activity”.

Question: And the “potency on NPR-A activation compared to hBNP” value (NPR-A receptor)?
Answer: The value was “lower activity than hBNP; also recorded: reduced potency”.

Question: What about the “effects on cGMP levels in plasma compared to BNP” value (cGMP; plasma) of the same compound?
Answer: The value was “reduced effects”.

Question: And the “effects on cGMP levels in urine compared to BNP” value (cGMP; urine)?
Answer: Its value is “reduced effects”.

Question: What about the “PK profile compared to BNP” value ([4]; conscious restrained cynomolgus monkeys, i.v. bolus) of the same compound?
Answer: Its value is “extended PK profile”.

Question: And the “metabolism in the blood” value ([4]; cynomolgus monkeys)?
Answer: The value was “not metabolized in the blood”.

Question: And the “circulating (plasma) half-life compared to hBNP” value [4]?
Answer: The value was “longer plasma half-life; also recorded: substantial increase in circulating half-life”.

Question: What about the “circulating (plasma) half-life compared to hBNP” value ([4]; listed as glycosylated proBNP) of the same compound?
Answer: The value was “greater than that of hBNP”.
